# Source: publication PMC10887324, “Electrochemical Aptasensing Platform for the Detection of Retinol Binding Protein-4”
# Legend:
# [1] = target: T1, Retinol binding protein-4 (RBP-4) (UniProt P02753 19-201); test: EIS (electrochemical impedance, Langmuir linearization); folded aptamer, 0.1 uM in immobilization; 2 mM MgCl2; Fe(CN)6 3-/4- probe; 0.1 M PBS + 2 mM MgCl2, Fe(CN)6 3-/4- redox probe, aptamer on gold electrode with MCH; aptamer folded at 70 C 1 min then ice 10 min; immobilization at room temp
# [2] = target: T1, Retinol binding protein-4 (RBP-4); test: EIS (electrochemical impedance, Langmuir linearization); same measurement as the Kd row; 2 mM MgCl2; 0.1 M PBS + 2 mM MgCl2, Fe(CN)6 3-/4- redox probe, aptamer on gold electrode with MCH; aptamer folded at 70 C 1 min then ice 10 min; immobilization at room temp
binder,measurement,setting,value
"ACAGTAGTGAGGGGTCCGTCGTGGGGTAGTTGGGTCGTGG (ssDNA, 5'-thiol (-SH)) [Apt-RBP-4]",Kd,[1],50 nM
same,Ka,[2],2e+07 M⁻¹
